Test results taken from patent US20210388087A1.

What follows are binders tested against Human CD137 ECD (human) (assay: single mutant vs template dBBDu183H).
Human CD137 ECD (human), sequence (chain, as listed by the source limits assumed): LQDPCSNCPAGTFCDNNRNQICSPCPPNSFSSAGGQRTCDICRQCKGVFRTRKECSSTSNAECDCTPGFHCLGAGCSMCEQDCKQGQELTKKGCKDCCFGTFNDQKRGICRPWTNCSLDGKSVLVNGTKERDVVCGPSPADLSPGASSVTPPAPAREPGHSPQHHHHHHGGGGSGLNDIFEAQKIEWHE

Binder	fold change of affinity
H183/L072 VH K52H (antibody, name in Kabat numbering, V domains shown) VH: QVQLVESGGGLVQPGRSLRLSCAASGFTFSNAWMHWVRQAPGKGLEWVAQIHDKGNAYAAYYAPSVKGRFTISRDDSKNSIYLQMNSLKTEDTAVYYCHYVHYASASTVLPAFGVDAWGQGTTVTVSS VL: DIVMTQSPLSLPVTPGEPASISCQASQELVHMNRNTYLHWYQQKPGQAPRLLIYKVSNRFPGVPDRFSGSGSGTDFTLKISRVEAEDVGVYYCAQGTSVPFTFGQGTKLEIK	0 fold
H183/L072 VH I51R (antibody, name in Kabat numbering, V domains shown) VH: QVQLVESGGGLVQPGRSLRLSCAASGFTFSNAWMHWVRQAPGKGLEWVAQRKDKGNAYAAYYAPSVKGRFTISRDDSKNSIYLQMNSLKTEDTAVYYCHYVHYASASTVLPAFGVDAWGQGTTVTVSS VL: DIVMTQSPLSLPVTPGEPASISCQASQELVHMNRNTYLHWYQQKPGQAPRLLIYKVSNRFPGVPDRFSGSGSGTDFTLKISRVEAEDVGVYYCAQGTSVPFTFGQGTKLEIK	0 fold
H183/L072 VH G26K (antibody, name in Kabat numbering, V domains shown) VH: QVQLVESGGGLVQPGRSLRLSCAASKFTFSNAWMHWVRQAPGKGLEWVAQIKDKGNAYAAYYAPSVKGRFTISRDDSKNSIYLQMNSLKTEDTAVYYCHYVHYASASTVLPAFGVDAWGQGTTVTVSS VL: DIVMTQSPLSLPVTPGEPASISCQASQELVHMNRNTYLHWYQQKPGQAPRLLIYKVSNRFPGVPDRFSGSGSGTDFTLKISRVEAEDVGVYYCAQGTSVPFTFGQGTKLEIK	0 fold
H183/L072 VH N53H (antibody, name in Kabat numbering, V domains shown) VH: QVQLVESGGGLVQPGRSLRLSCAASGFTFSNAWMHWVRQAPGKGLEWVAQIKDKGHAYAAYYAPSVKGRFTISRDDSKNSIYLQMNSLKTEDTAVYYCHYVHYASASTVLPAFGVDAWGQGTTVTVSS VL: DIVMTQSPLSLPVTPGEPASISCQASQELVHMNRNTYLHWYQQKPGQAPRLLIYKVSNRFPGVPDRFSGSGSGTDFTLKISRVEAEDVGVYYCAQGTSVPFTFGQGTKLEIK	0 fold
H183/L072 VH Q50R (antibody, name in Kabat numbering, V domains shown) VH: QVQLVESGGGLVQPGRSLRLSCAASGFTFSNAWMHWVRQAPGKGLEWVARIKDKGNAYAAYYAPSVKGRFTISRDDSKNSIYLQMNSLKTEDTAVYYCHYVHYASASTVLPAFGVDAWGQGTTVTVSS VL: DIVMTQSPLSLPVTPGEPASISCQASQELVHMNRNTYLHWYQQKPGQAPRLLIYKVSNRFPGVPDRFSGSGSGTDFTLKISRVEAEDVGVYYCAQGTSVPFTFGQGTKLEIK	0 fold
H183/L072 VH Y55R (antibody, name in Kabat numbering, V domains shown) VH: QVQLVESGGGLVQPGRSLRLSCAASGFTFSNAWMHWVRQAPGKGLEWVAQIKDKGNARAAYYAPSVKGRFTISRDDSKNSIYLQMNSLKTEDTAVYYCHYVHYASASTVLPAFGVDAWGQGTTVTVSS VL: DIVMTQSPLSLPVTPGEPASISCQASQELVHMNRNTYLHWYQQKPGQAPRLLIYKVSNRFPGVPDRFSGSGSGTDFTLKISRVEAEDVGVYYCAQGTSVPFTFGQGTKLEIK	0 fold
H183/L072 VH N53R (antibody, name in Kabat numbering, V domains shown) VH: QVQLVESGGGLVQPGRSLRLSCAASGFTFSNAWMHWVRQAPGKGLEWVAQIKDKGRAYAAYYAPSVKGRFTISRDDSKNSIYLQMNSLKTEDTAVYYCHYVHYASASTVLPAFGVDAWGQGTTVTVSS VL: DIVMTQSPLSLPVTPGEPASISCQASQELVHMNRNTYLHWYQQKPGQAPRLLIYKVSNRFPGVPDRFSGSGSGTDFTLKISRVEAEDVGVYYCAQGTSVPFTFGQGTKLEIK	0 fold
H183/L072 VH N31R (antibody, name in Kabat numbering, V domains shown) VH: QVQLVESGGGLVQPGRSLRLSCAASGFTFSRAWMHWVRQAPGKGLEWVAQIKDKGNAYAAYYAPSVKGRFTISRDDSKNSIYLQMNSLKTEDTAVYYCHYVHYASASTVLPAFGVDAWGQGTTVTVSS VL: DIVMTQSPLSLPVTPGEPASISCQASQELVHMNRNTYLHWYQQKPGQAPRLLIYKVSNRFPGVPDRFSGSGSGTDFTLKISRVEAEDVGVYYCAQGTSVPFTFGQGTKLEIK	0 fold
H183/L072 VH D52aH (antibody, name in Kabat numbering, V domains shown) VH: QVQLVESGGGLVQPGRSLRLSCAASGFTFSNAWMHWVRQAPGKGLEWVAQIKHKGNAYAAYYAPSVKGRFTISRDDSKNSIYLQMNSLKTEDTAVYYCHYVHYASASTVLPAFGVDAWGQGTTVTVSS VL: DIVMTQSPLSLPVTPGEPASISCQASQELVHMNRNTYLHWYQQKPGQAPRLLIYKVSNRFPGVPDRFSGSGSGTDFTLKISRVEAEDVGVYYCAQGTSVPFTFGQGTKLEIK	0 fold
H183/L072 VH F29R (antibody, name in Kabat numbering, V domains shown) VH: QVQLVESGGGLVQPGRSLRLSCAASGFTRSNAWMHWVRQAPGKGLEWVAQIKDKGNAYAAYYAPSVKGRFTISRDDSKNSIYLQMNSLKTEDTAVYYCHYVHYASASTVLPAFGVDAWGQGTTVTVSS VL: DIVMTQSPLSLPVTPGEPASISCQASQELVHMNRNTYLHWYQQKPGQAPRLLIYKVSNRFPGVPDRFSGSGSGTDFTLKISRVEAEDVGVYYCAQGTSVPFTFGQGTKLEIK	0 fold
H183/L072 VH H35K (antibody, name in Kabat numbering, V domains shown) VH: QVQLVESGGGLVQPGRSLRLSCAASGFTFSNAWMKWVRQAPGKGLEWVAQIKDKGNAYAAYYAPSVKGRFTISRDDSKNSIYLQMNSLKTEDTAVYYCHYVHYASASTVLPAFGVDAWGQGTTVTVSS VL: DIVMTQSPLSLPVTPGEPASISCQASQELVHMNRNTYLHWYQQKPGQAPRLLIYKVSNRFPGVPDRFSGSGSGTDFTLKISRVEAEDVGVYYCAQGTSVPFTFGQGTKLEIK	0 fold
H183/L072 VH F29K (antibody, name in Kabat numbering, V domains shown) VH: QVQLVESGGGLVQPGRSLRLSCAASGFTKSNAWMHWVRQAPGKGLEWVAQIKDKGNAYAAYYAPSVKGRFTISRDDSKNSIYLQMNSLKTEDTAVYYCHYVHYASASTVLPAFGVDAWGQGTTVTVSS VL: DIVMTQSPLSLPVTPGEPASISCQASQELVHMNRNTYLHWYQQKPGQAPRLLIYKVSNRFPGVPDRFSGSGSGTDFTLKISRVEAEDVGVYYCAQGTSVPFTFGQGTKLEIK	0 fold
H183/L072 VH H35R (antibody, name in Kabat numbering, V domains shown) VH: QVQLVESGGGLVQPGRSLRLSCAASGFTFSNAWMRWVRQAPGKGLEWVAQIKDKGNAYAAYYAPSVKGRFTISRDDSKNSIYLQMNSLKTEDTAVYYCHYVHYASASTVLPAFGVDAWGQGTTVTVSS VL: DIVMTQSPLSLPVTPGEPASISCQASQELVHMNRNTYLHWYQQKPGQAPRLLIYKVSNRFPGVPDRFSGSGSGTDFTLKISRVEAEDVGVYYCAQGTSVPFTFGQGTKLEIK	0 fold
H183/L072 VH N53K (antibody, name in Kabat numbering, V domains shown) VH: QVQLVESGGGLVQPGRSLRLSCAASGFTFSNAWMHWVRQAPGKGLEWVAQIKDKGKAYAAYYAPSVKGRFTISRDDSKNSIYLQMNSLKTEDTAVYYCHYVHYASASTVLPAFGVDAWGQGTTVTVSS VL: DIVMTQSPLSLPVTPGEPASISCQASQELVHMNRNTYLHWYQQKPGQAPRLLIYKVSNRFPGVPDRFSGSGSGTDFTLKISRVEAEDVGVYYCAQGTSVPFTFGQGTKLEIK	0 fold
H183/L072 VH W33R (antibody, name in Kabat numbering, V domains shown) VH: QVQLVESGGGLVQPGRSLRLSCAASGFTFSNARMHWVRQAPGKGLEWVAQIKDKGNAYAAYYAPSVKGRFTISRDDSKNSIYLQMNSLKTEDTAVYYCHYVHYASASTVLPAFGVDAWGQGTTVTVSS VL: DIVMTQSPLSLPVTPGEPASISCQASQELVHMNRNTYLHWYQQKPGQAPRLLIYKVSNRFPGVPDRFSGSGSGTDFTLKISRVEAEDVGVYYCAQGTSVPFTFGQGTKLEIK	0 fold
H183/L072 VH W33K (antibody, name in Kabat numbering, V domains shown) VH: QVQLVESGGGLVQPGRSLRLSCAASGFTFSNAKMHWVRQAPGKGLEWVAQIKDKGNAYAAYYAPSVKGRFTISRDDSKNSIYLQMNSLKTEDTAVYYCHYVHYASASTVLPAFGVDAWGQGTTVTVSS VL: DIVMTQSPLSLPVTPGEPASISCQASQELVHMNRNTYLHWYQQKPGQAPRLLIYKVSNRFPGVPDRFSGSGSGTDFTLKISRVEAEDVGVYYCAQGTSVPFTFGQGTKLEIK	0 fold
H183/L072 VH M34K (antibody, name in Kabat numbering, V domains shown) VH: QVQLVESGGGLVQPGRSLRLSCAASGFTFSNAWKHWVRQAPGKGLEWVAQIKDKGNAYAAYYAPSVKGRFTISRDDSKNSIYLQMNSLKTEDTAVYYCHYVHYASASTVLPAFGVDAWGQGTTVTVSS VL: DIVMTQSPLSLPVTPGEPASISCQASQELVHMNRNTYLHWYQQKPGQAPRLLIYKVSNRFPGVPDRFSGSGSGTDFTLKISRVEAEDVGVYYCAQGTSVPFTFGQGTKLEIK	0 fold
H183/L072 VH M34R (antibody, name in Kabat numbering, V domains shown) VH: QVQLVESGGGLVQPGRSLRLSCAASGFTFSNAWRHWVRQAPGKGLEWVAQIKDKGNAYAAYYAPSVKGRFTISRDDSKNSIYLQMNSLKTEDTAVYYCHYVHYASASTVLPAFGVDAWGQGTTVTVSS VL: DIVMTQSPLSLPVTPGEPASISCQASQELVHMNRNTYLHWYQQKPGQAPRLLIYKVSNRFPGVPDRFSGSGSGTDFTLKISRVEAEDVGVYYCAQGTSVPFTFGQGTKLEIK	0 fold
H183/L072 VH D52aR (antibody, name in Kabat numbering, V domains shown) VH: QVQLVESGGGLVQPGRSLRLSCAASGFTFSNAWMHWVRQAPGKGLEWVAQIKRKGNAYAAYYAPSVKGRFTISRDDSKNSIYLQMNSLKTEDTAVYYCHYVHYASASTVLPAFGVDAWGQGTTVTVSS VL: DIVMTQSPLSLPVTPGEPASISCQASQELVHMNRNTYLHWYQQKPGQAPRLLIYKVSNRFPGVPDRFSGSGSGTDFTLKISRVEAEDVGVYYCAQGTSVPFTFGQGTKLEIK	0 fold
H183/L072 VH D52aK (antibody, name in Kabat numbering, V domains shown) VH: QVQLVESGGGLVQPGRSLRLSCAASGFTFSNAWMHWVRQAPGKGLEWVAQIKKKGNAYAAYYAPSVKGRFTISRDDSKNSIYLQMNSLKTEDTAVYYCHYVHYASASTVLPAFGVDAWGQGTTVTVSS VL: DIVMTQSPLSLPVTPGEPASISCQASQELVHMNRNTYLHWYQQKPGQAPRLLIYKVSNRFPGVPDRFSGSGSGTDFTLKISRVEAEDVGVYYCAQGTSVPFTFGQGTKLEIK	0 fold
H183/L072 VH N31K (antibody, name in Kabat numbering, V domains shown) VH: QVQLVESGGGLVQPGRSLRLSCAASGFTFSKAWMHWVRQAPGKGLEWVAQIKDKGNAYAAYYAPSVKGRFTISRDDSKNSIYLQMNSLKTEDTAVYYCHYVHYASASTVLPAFGVDAWGQGTTVTVSS VL: DIVMTQSPLSLPVTPGEPASISCQASQELVHMNRNTYLHWYQQKPGQAPRLLIYKVSNRFPGVPDRFSGSGSGTDFTLKISRVEAEDVGVYYCAQGTSVPFTFGQGTKLEIK	0 fold
